Test results from patent US10450570B2, “Compositions and methods for controlling vasculature” (YALE UNIVERSITY, priority 2016, dated 2019).

B1: PDGFBB: platelet-derived growth factor-BB, purchased from Peprotech (protein, UniProt P01127 82-190, looked up)
Platelet-derived growth …: SLGSLTIAEPAMIAECKTRTEVFEISRRLIDRTNANFLVWPPCVEVQRCSGCCNNRNVQCRPTQVQLRPVQVRKIEIVRKKPIFKKATVTLEDHLACKCETVAAARPVT
B2: VEGFD: Human VEGFD growth factor purchased from Peprotech (protein, UniProt O43915 89-205, looked up)
Vascular endothelial growth …: FAATFYDIETLKVIDEEWQRTQCSPRETCVEVASELGKSTNTFFKPPCVNVFRCGGCCNEESLICMNTSTSYISKQLFEISVPLTSVPELVPVKVANHTGCKCLPTAPRHPYSIIRR
B3: VEGFC: Human VEGFC growth factor purchased from Peprotech (protein, UniProt P49767 112-227, looked up)
Vascular endothelial growth …: AHYNTEILKSIDNEWRKTQCMPREVCIDVGKEFGVATNTFFKPPCVSVYRCGGCCNSEGLQCMNTSTSYLSKTLFEITVPLSQGPKPVTISFANHTSCRCMSKLDVYRQVHSIIRR
B4: sFGFR1-IIIC: soluble pan-FGF receptor trap, delivered by adenovirus (protein, UniProt P11362 22-376, looked up)
extracellular domain: RPSPTLPEQAQPWGAPVEVESFLVHPGDLLQLRCRLRDDVQSINWLRDGVQLAESNRTRITGEEVEVQDSVPADSGLYACVTSSPSGSDTTYFSVNVSDALPSSEDDDDDDDSSSEEKETDNTKPNRMPVAPYWTSPEKMEKKLHAVPAAKTVKFKCPSSGTPNPTLRWLKNGKEFKPDHRIGGYKVRYATWSIIMDSVVPSDKGNYTCIVENEYGSINHTYQLDVVERSPHRPILQAGLPANKTVALGSNVEFMCKVYSDPQPHIQWLKHIEVNGSKIGPDNLPYVQILKTAGVNTTDKEMEVLHLRNVSFEDAGEYTCLAGNSIGLSHHSAWLTVLEALEERPAVMTSPLYLE
modifications: extracellular domain IIIc isoform, adenovirus-delivered

What was measured:
HDLECs = test: Glycolytic flux measurement (5-3H-glucose); assay type: cell-based, human
Description: Glycolysis was measured as previously described. Briefly, subconfluent HDLECs cultured in 12-well plates were incubated with 1 ml/well EBM2 medium (containing appropriate amount of serum and supplement) with 80 μCi/mmol 5-^3H-glucose (Perkin Elmer) for 2-3 hr. Then 0.8 ml/well medium was transferred into glass vials with hanging wells and filter papers soaked with H2O. After incubation in a cell culture incubator for at least 2 days to reach saturation, filter papers were taken out and the amount of evaporated ^3H2O was measured in a scintillation counter. Glucose oxidation, glutamine oxidation and fatty acid oxidation were measured essentially as reported. For measurement of glucose uptake, HDLECs were incubated with 2-[1-^14C]-deoxy-D-glucose (2.5 μCi/ml, Perkin Elmer) for 10 min. before PBS washing (at least 3 times to get rid of all radioactive medium) and then lysis with 500 μL 0.1 N NaOH. 400 μl NaOH cell lysate for each sample was transferred to scintillation vials containing scintillation liquid and measured.

[1] = test system: HK2 and other glycolytic enzymes in HDLECs; test: Western blot of glycolytic enzyme expression in HDLECs; assay type: cell-based, human; conditions: protein
Description: (§1) Human dermal lymphatic endothelial cells (HDLECs, HMVEC-dLyNeo-Der Lym Endo EGM-2MV) and Pooled human umbilical vein endothelial cells (HUVECs) were purchased from Lonza and cultured in EBM2 basal medium with EGM-2 MV BulletKit. Both cell types were tested negative for mycoplasma in Lonza. Culture medium was changed every the other day. Tissue culture plates were coated with 0.1% gelatin (Sigma) for 30 min at 37° C. and washed with Dulbecco's Phosphate-Buffered Saline (Life Technologies) before cell plating. For siRNA-mediated gene knockdown, FGFR1 siRNA (ON-TARGETplus human FGFR1 siRNA, Dharmacon; Hs_FGFR1_6, Qiagen), FGFR3 siRNA (Hs_FGFR3_6, Qiagen), HK2 siRNA (s6562 human HK2 siRNA, Life Technologies), c-Myc siRNA (ON-TARGETplus human Myc siRNA, Dharmacon), AllStar negative control siRNA (Qiagen), and ON-TARGETplus Non-targeting pool (Dharmacon) were transfected by lipofectamine RNAimax reagent (Life Technologies). Human FGF2 was provided by Kaken Pharmaceutical Co, Ltd (Japan) and ordered from Peprotech. Human VEGFC, VEGFD, IGF1, IGF2 and PDGFBB were purchased from Peprotech. To assay the effect of FGFR1 knockdown on glycolytic enzyme expression, HDLECs, transfected with control or FGFR1 siRNA 3 days in advance, were replated and collected for protein analysis 24 hr later when the cell confluency reached ˜80%. […] ImageJ was used for densitometry quantification of western blot bands.

[2] = test system: FGF2-induced ERK activation in HDLECs; test: FGF2-induced ERK activation, Western blot of phosphorylated and total ERK; assay type: cell-based, human; conditions: HDLECs infected with adenovirus, serum-starved, stimulated with FGF2
Description: as §1, with “bands. […]” for “bands.”

[3] = test system: tail skin lymphatic formation; test: Tail skin lymphatic formation in neonatal mice after adenovirus injection; assay type: in vivo; conditions: adenovirus injected into mouse pups at P0 and P1, examined at P6
Description: Adenovirus encoding GFP, empty CMV vector, sFGFR1-IIIC (Murakami, M. et al., 118, 3355-3366, (2008)), HK2 (Wu, R. et al. Circulation research 108, 60-69, (2011)), or Myc (from Vector Biolabs) for in vitro experiments was amplified in 293A cells according to the user manual of ViraPower™ Adenoviral Expression System (Life Technologies). Virus was tittered using Adeno-X™ Rapid Titer Kit (Clontech Laboratories). For in vivo experiments, LacZ- or sFGFR1-IIIC was amplified and purified at University of North Carolina virus vector core. Neonatal pups were injected i.p. with 5×10^8 FFU of LacZ or sFGFR1-IIIC virus at P0 and P1. Tail skin was harvested at P6 using a method published previously (Xu, Y. et al., J Cell Biol 188, 115-130, (2010)).

Row | Molecule | glycolytic flux (HDLECs) | glycolytic enzyme (HK2) expression [1] | FGF2-induced ERK activation [2] | tail skin lymphatic formation [3]
1 | B1 | reduced flux |  |  | 
2 | B2 | no effect |  |  | 
3 | B3 | increased glycolytic flux, albeit to a lesser extent than FGF2 | increased HK2 expression without affecting other enzymes |  | 
4 | B4 |  |  | inhibited FGF2-induced ERK activation to the same extent as DN-FGFR1 | significant inhibition of tail skin lymphatic formation
